Data set [1] addresses T1, CTCF ZF1-ZF7 (Homo sapiens, UniProt P49711 263-465).
T1 sequence: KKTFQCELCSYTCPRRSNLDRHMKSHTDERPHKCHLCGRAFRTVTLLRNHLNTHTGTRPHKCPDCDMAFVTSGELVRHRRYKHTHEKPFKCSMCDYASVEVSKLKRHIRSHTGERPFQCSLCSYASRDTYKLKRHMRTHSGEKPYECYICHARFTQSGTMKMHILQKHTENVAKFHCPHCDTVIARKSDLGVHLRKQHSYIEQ
The experiment in a line: fluorescence polarization. Background: In fluorescence polarisation assays a small probe gives low polarisation when free and higher when bound to something large.

In data set [2] the target is T2, CTCF ZF3-ZF11 (Homo sapiens, UniProt P49711 322-577).
T2 sequence: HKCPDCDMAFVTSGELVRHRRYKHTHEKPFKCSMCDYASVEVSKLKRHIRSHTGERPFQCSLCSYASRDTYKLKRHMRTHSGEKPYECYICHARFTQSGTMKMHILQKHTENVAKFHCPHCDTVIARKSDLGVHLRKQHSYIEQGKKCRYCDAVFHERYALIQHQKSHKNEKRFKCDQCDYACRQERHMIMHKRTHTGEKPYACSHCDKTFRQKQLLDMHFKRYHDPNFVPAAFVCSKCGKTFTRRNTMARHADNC
The experiment in a line: X-ray crystallography.

The target of data set [3] is T2, CTCF ZF3-ZF11. The experiment in a line: X-ray crystallography. The source holds these as a separate data set.
For data set [4], the target named is T1, CTCF ZF1-ZF7. The experiment in a line: X-ray crystallography.

Where two headings read alike, the source gives them in different places.

B1: FP oligo X:Y=A:T (dsDNA)
DNA 1: AGGACCAGCAGGGGACGCA
DNA 2: TGCGTCCCCTGCTGGTCCT
As for B1, the binding signal with CTCF ZF1-ZF7 [1] was 7 fold reduced affinity vs G:C.

B2: 19-bp (dsDNA)
DNA 1: TGCGCCCCCTGCTGGTCCT
DNA 2: AGGACCAGCAGGGGGCGCA
Turning to B2, in the data set with CTCF ZF3-ZF11 [2], the binding result was “binds”.

B3: 35-4 (dsDNA)
DNA 1: GTGCAGTACCACATTTAACCAGCAGGGGGCGCTAA
DNA 2: TTAGCGCCCCCTGCTGGTTAAATGTGGTACTGCAC
As for B3, the binding result in the data set with CTCF ZF3-ZF11 [3] was “binds”.

B4: 23-bp (dsDNA)
DNA 1: GCCAGCAGGGGGCGCTAGTGAGG
DNA 2: CCTCACTAGCGCCCCCTGCTGGC
B4: the binding result in the data set with CTCF ZF1-ZF7 [4] is reported as “binds”.

The values above are taken from paper PMC10484683.
